The results in this text go back to article PMC6802964.

The target of assay [1] is T1, CyPet–Myo1^IQ1–YPet FRET reporter protein (S. pombe).
T1 sequence (Q9Y7Z8 whole entry, looked up): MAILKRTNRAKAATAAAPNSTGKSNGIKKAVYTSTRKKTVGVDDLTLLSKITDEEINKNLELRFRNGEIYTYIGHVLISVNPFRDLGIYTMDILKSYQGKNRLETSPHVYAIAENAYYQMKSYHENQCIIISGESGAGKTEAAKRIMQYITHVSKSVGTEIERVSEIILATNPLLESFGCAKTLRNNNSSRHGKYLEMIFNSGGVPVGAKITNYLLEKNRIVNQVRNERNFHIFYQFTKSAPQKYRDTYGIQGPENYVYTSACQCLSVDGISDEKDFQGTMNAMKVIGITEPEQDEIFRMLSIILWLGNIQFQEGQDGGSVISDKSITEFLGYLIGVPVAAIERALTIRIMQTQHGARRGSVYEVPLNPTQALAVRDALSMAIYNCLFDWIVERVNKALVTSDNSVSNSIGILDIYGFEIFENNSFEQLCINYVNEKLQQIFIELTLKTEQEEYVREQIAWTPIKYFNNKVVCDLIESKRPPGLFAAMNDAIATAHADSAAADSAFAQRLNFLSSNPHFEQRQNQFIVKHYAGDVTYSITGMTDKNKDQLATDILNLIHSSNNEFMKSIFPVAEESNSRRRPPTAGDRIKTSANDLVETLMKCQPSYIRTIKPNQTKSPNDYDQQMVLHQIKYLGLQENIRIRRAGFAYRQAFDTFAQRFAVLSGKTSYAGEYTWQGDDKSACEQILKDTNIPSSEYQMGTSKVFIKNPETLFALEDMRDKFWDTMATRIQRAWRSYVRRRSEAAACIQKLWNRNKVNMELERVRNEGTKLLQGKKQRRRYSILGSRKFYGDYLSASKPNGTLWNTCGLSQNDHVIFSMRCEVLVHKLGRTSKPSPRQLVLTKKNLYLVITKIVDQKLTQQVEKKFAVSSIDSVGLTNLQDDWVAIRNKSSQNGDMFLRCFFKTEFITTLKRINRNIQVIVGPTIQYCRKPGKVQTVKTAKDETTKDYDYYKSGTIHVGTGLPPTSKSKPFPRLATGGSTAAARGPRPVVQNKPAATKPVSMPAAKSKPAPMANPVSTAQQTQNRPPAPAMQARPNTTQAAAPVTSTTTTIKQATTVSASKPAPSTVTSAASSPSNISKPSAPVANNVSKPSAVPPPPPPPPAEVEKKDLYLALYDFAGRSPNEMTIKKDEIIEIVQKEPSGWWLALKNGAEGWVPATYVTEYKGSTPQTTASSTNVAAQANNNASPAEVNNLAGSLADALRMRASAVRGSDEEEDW
In words: other fluorescence titration; change of the CyPet-YPet FRET signal of the IQ-FRET protein (1 µM by the methods, 0.5 µM by the legend) with varying concentrations of Cam1 or Cam2; 140 mM KCl, 20 mM MOPS pH 7.0, with or without 2 mM MgCl2, 2 mM EGTA (absence of calcium).

Assay [2] has as its target T2, CyPet–Myo1^IQ12–YPet FRET reporter protein (S. pombe).
T2 sequence (Q9Y7Z8 whole entry, looked up): T1 sequence (Q9Y7Z8 whole entry, looked up)
The description is as above.

For orientation: Kd means the concentration at which binding is half-saturated.

Consider “Cam1 (wild type, amino-terminally acetylated fission yeast calmodulin) (from UniProt P05933 1-150) (natural protein)”, for which the Kd in assay [1] is less than 100 nM. For the same substance, in assay [2], the KD of the first binding event is less than 100 nM and the KD of the second binding event came out at 680 nM.
